This data set relates to GST-p180-Lys (p180 lysine-rich region). The data set can be described thus: EMSA. Particulars: PBS with 10 ug/ml denatured yeast tRNA, room temperature, 20 min; native 10% PAGE (19:1) in TBE; pH not stated. (In general: A gel shift assay detects complexes by their altered migration in electrophoresis.)

Broadly, the Kd is the free concentration of one partner at which half of the binding sites on the other are occupied at equilibrium, for simple one-to-one binding. Read a low Kd as tighter binding. human insulin SSCR RNA: the Kd worked out at 800 nM.

These data come from article PMC3362647.
